Experimental data published in article PMC3988464 (Journal of immunology (Baltimore, Md. : 1950), 2014).

B1: CXCL8_T (K64A/K67A/R68A) mutant (ligand)
chain: SAKELRCQCIKTYSKPFHPKFIKELRVIESGPHCANTEIIVKLSDGRELCLDPKENWVQRVVEAFLAAAENS
modifications: 72-residue mature form by convention (mature numbering +27 = precursor); monomer/dimer equilibrium
B2: CCL5 (ligand, UniProt P13501 24-91, looked up)
chain: SPYSSDTTPCCFAYIARPLPRAHIKEYFYTSGKCSNPAVVFVTRKNRQVCANPEKKWVREYINSLEMS
B3: CXCL11 (ligand, UniProt O14625 22-94, looked up)
chain: FPMFKRGRCLCIGPGVKAVKVADIEKASIMYPSNNCDKIEVIITLKENKGQRCLNPKSKQARLIIKKVERKNF

Key:
[1] = biological target: Full-length, wild type recombinant human TSG-6 (human, UniProt P98066 18-277); experiment: SPR
Sequence of Full-length, wild type recombinant human TSG-6 (P98066 18-277): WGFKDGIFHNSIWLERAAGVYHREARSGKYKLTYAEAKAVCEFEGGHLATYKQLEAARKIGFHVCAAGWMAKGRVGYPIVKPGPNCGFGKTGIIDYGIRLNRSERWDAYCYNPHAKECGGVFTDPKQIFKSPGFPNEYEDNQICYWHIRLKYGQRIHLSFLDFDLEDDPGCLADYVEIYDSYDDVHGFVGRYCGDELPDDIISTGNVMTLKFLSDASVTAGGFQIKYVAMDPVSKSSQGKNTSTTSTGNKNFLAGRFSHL

[2] = biological target: Isolated Link module of human TSG-6 (Link_TSG6) (human, UniProt P98066 36-129); experiment: SPR
Sequence of Isolated Link module of human TSG-6 (Link_TSG6) (P98066 36-129): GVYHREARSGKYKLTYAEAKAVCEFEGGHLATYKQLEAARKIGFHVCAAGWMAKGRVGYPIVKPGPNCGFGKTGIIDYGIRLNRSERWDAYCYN

Row | Binder | Kd [1] | koff [1] | kon [1] | Kd [2] | koff [2] | kon [2]
1 | B1 | 2110 nM | 0.0014 s⁻¹ | 640 M⁻¹ s⁻¹ | – | – | –
2 | B2 | – | – | – | 2 nM | 0.00011 s⁻¹ | 57000 M⁻¹ s⁻¹
3 | B3 | 16.4 nM | 0.00011 s⁻¹ | 6400 M⁻¹ s⁻¹ | – | – | –
